± gives the standard deviation of the averaged measurements.
Assay: total protein half-life in vivo (active degradation + dilution); higher = more stable protein
[1] = E. coli NCM3722 delta-clpP delta-lon delta-hslV, growth: N-lim chemostat, doubling time 6 h
[2] = E. coli NCM3722 delta-clpP, growth: N-lim chemostat, doubling time 6 h
[3] = E. coli NCM3722 delta-hslV, growth: N-lim chemostat, doubling time 6 h
[4] = E. coli NCM3722 delta-lon, growth: N-lim chemostat, doubling time 6 h
[5] = E. coli NCM3722 delta-smpB, growth: N-lim chemostat, doubling time 6 h
[6] = wild type E. coli NCM3722, growth: C-lim chemostat, doubling time 3 h
[7] = wild type E. coli NCM3722, growth: C-lim chemostat, doubling time 6 h
[8] = wild type E. coli NCM3722, growth: C-lim chemostat, doubling time 12 h
[9] = wild type E. coli NCM3722, growth: N-lim chemostat, doubling time 6 h
[10] = wild type E. coli NCM3722, growth: N-lim chemostat, doubling time 12 h
[11] = wild type E. coli NCM3722, growth: P-lim chemostat, doubling time 6 h
[12] = wild type E. coli NCM3722, growth: P-lim chemostat, doubling time 12 h

Row | Sequence | total protein half-life in vivo [1] [h] | total protein half-life in vivo [2] [h] | total protein half-life in vivo [3] [h] | total protein half-life in vivo [4] [h] | total protein half-life in vivo [5] [h] | total protein half-life in vivo [6] [h] | total protein half-life in vivo [7] [h] | total protein half-life in vivo [8] [h] | total protein half-life in vivo [9] [h] | total protein half-life in vivo [10] [h] | total protein half-life in vivo [11] [h] | total protein half-life in vivo [12] [h]
1 | MSVMFDPDTAIYPFPPKPTPLSIDEKAYYREKIKRLLKERNAVMVAHYYTDPEIQQLAEETGGCISDSLEMARFGAKHPASTLLVAGVRFMGETAKILSPEKTILMPTLQAECSLDLGCPVEEFNAFCDAHPDRTVVVYANTSAAVKARADWVVTSSIAVELIDHLDSLGEKIIWAPDKHLGRYVQKQTGGDILCWQGACIVHDEFKTQALTRLQEEYPDAAILVHPESPQAIVDMADAVGSTSQLIAAAKTLPHQRLIVATDRGIFYKMQQAVPDKELLEAPTAGEGATCRSCAHCPWMAMNGLQAIAEALEQEGSNHEVHVDERLRERALVPLNRMLDFAATLRG | 3.98 ± 0.16 | 1.78 ± 0.25 | 0.977 ± 0.24 | 1.1 ± 0.098 | 1.08 ± 0.25 | 1.14 ± 0.026 | 1.39 ± 0.083 | 1.8 ± 0.44 | 0.926 ± 0.058 | 1.03 ± 0.097 | 1.26 | 2.48 ± 0.81
2 | MSVQQIDWDLALIQKYNYSGPRYTSYPTALEFSEDFGEQAFLQAVARYPERPLSLYVHIPFCHKLCYFCGCNKIVTRQQHKADQYLDALEQEIVHRAPLFAGRHVSQLHWGGGTPTYLNKAQISRLMKLLRENFQFNADAEISIEVDPREIELDVLDHLRAEGFNRLSMGVQDFNKEVQRLVNREQDEEFIFALLNHAREIGFTSTNIDLIYGLPKQTPESFAFTLKRVAELNPDRLSVFNYAHLPTIFAAQRKIKDADLPSPQQKLDILQETIAFLTQSGYQFIGMDHFARPDDELAVAQREGVLHRNFQGYTTQGDTDLLGMGVSAISMIGDCYAQNQKELKQYYQQVDEQGNALWRGIALTRDDCIRRDVIKSLICNFRLDYAPIEKQWDLHFADYFAEDLKLLAPLAKDGLVDVDEKGIQVTAKGRLLIRNICMCFDTYLRQKARMQQFSRVI | 4.79 ± 0.99 | 3.9 ± 0.13 | 3.36 ± 0.42 | 3.22 ± 0.1 | 2.98 ± 0.056 | 2.55 ± 0.33 | 4.23 ± 0.08 | 6.14 ± 0.71 | 2.99 ± 0.12 | 4.64 ± 0.16 | 4.23 ± 0.068 | 7.23 ± 0.7
3 | MSVVISDAWRQRFGGTARLYGEKALQLFADAHICVVGIGGVGSWAAEALARTGIGAITLIDMDDVCVTNTNRQIHALRDNVGLAKAEVMAERIRQINPECRVTVVDDFVTPDNVAQYMSVGYSYVIDAIDSVRPKAALIAYCRRNKIPLVTTGGAGGQIDPTQIQVTDLAKTIQDPLAAKLRERLKSDFGVVKNSKGKLGVDCVFSTEALVYPQSDGTVCAMKATAEGPKRMDCASGFGAATMVTATFGFVAVSHALKKMMAKAARQG | 4.94 ± 0.44 | – | 3.85 ± 1.2 | – | 5.05 ± 0.58 | 3.36 ± 0.59 | 5.77 ± 0.26 | 9.6 ± 0.78 | 4.87 ± 0.32 | 6.86 ± 1.1 | 5.2 ± 0.15 | 11.79 ± 0.028
4 | MSVVPVADVLQGRVAVDSEVTVRGWVRTRRDSKAGISFLAVYDGSCFDPVQAVINNSLPNYNEDVLRLTTGCSVIVTGKVVASPGQGQQFEIQASKVEVAGWVEDPDTYPMAAKRHSIEYLREVAHLRPRTNLIGAVARVRHTLAQALHRFFNEQGFFWVSTPLITASDTEGAGEMFRVSTLDLENLPRNDQGKVDFDKDFFGKESFLTVSGQLNGETYACALSKIYTFGPTFRAENSNTSRHLAEFWMLEPEVAFANLNDIAGLAEAMLKYVFKAVLEERADDMKFFAERVDKDAVSRLERFIEADFAQVDYTDAVTILENCGRKFENPVYWGVDLSSEHERYLAEEHFKAPVVVKNYPKDIKAFYMRLNEDGKTVAAMDVLAPGIGEIIGGSQREERLDVLDERMLEMGLNKEDYWWYRDLRRYGTVPHSGFGLGFERLIAYVTGVQNVRDVIPFPRTPRNASF [P0A8M0] | 5.93 ± 0.36 | 5.65 ± 0.14 | 5.29 ± 0.32 | 6.11 ± 0.23 | 5.45 ± 0.33 | 3.23 ± 0.51 | 6.37 ± 0.33 | 11.55 ± 0.055 | 5.338 ± 0.0091 | 9.553 ± 0.028 | 6.83 ± 0.74 | 12.9 ± 0.18
5 | MSWIERIKSNITPTRKASIPEGVWTKCDSCGQVLYRAELERNLEVCPKCDHHMRMTARNRLHSLLDEGSLVELGSELEPKDVLKFRDSKKYKDRLASAQKETGEKDALVVMKGTLYGMPVVAAAFEFAFMGGSMGSVVGARFVRAVEQALEDNCPLICFSASGGARMQEALMSLMQMAKTSAALAKMQERGLPYISVLTDPTMGGVSASFAMLGDLNIAEPKALIGFAGPRVIEQTVREKLPPGFQRSEFLIEKGAIDMIVRRPEMRLKLASILAKLMNLPAPNPEAPREGVVVPPVPDQEPEA [P0A9Q5] | 5.95 ± 0.21 | 6.46 ± 0.77 | 6.167 ± 0.012 | 5.92 ± 0.97 | 5.66 ± 0.42 | 3.03 ± 0.31 | 6.15 ± 0.42 | 11.2 ± 0.44 | 6.06 ± 0.44 | 12.1 ± 0.061 | 5.81 ± 0.093 | 12.3 ± 0.26
6 | MSYQPQTEAATSRFLNVEEAGKTLRIHFNDCGQGDETVVLLHGSGPGATGWANFSRNIDPLVEAGYRVILLDCPGWGKSDSVVNSGSRSDLNARILKSVVDQLDIAKIHLLGNSMGGHSSVAFTLKWPERVGKLVLMGGGTGGMSLFTPMPTEGIKRLNQLYRQPTIENLKLMMDIFVFDTSDLTDALFEARLNNMLSRRDHLENFVKSLEANPKQFPDFGPRLAEIKAQTLIVWGRNDRFVPMDAGLRLLSGIAGSELHIFRDCGHWAQWEHADAFNQLVLNFLARP | 5.3 ± 0.56 | 2.05 ± 0.77 | 2.34 ± 0.87 | 2.71 | 2.32 ± 0.21 | 1.42 ± 0.3 | 2.67 ± 0.065 | 4.07 | 1.93 | 3.13 | 3.21 | 5.69 ± 1.3
7 | MSYSNILVAVAVTPESQQLLAKAVSIARPVKGHISLITLASDPEMYNQLAAPMLEDLRSVMHEETQSFLDKLIQDAGYPVDKTFIAYGELSEHILEVCHKHHFDLVICGNHNHSFFSRASCSAKRVIASSEVDVLLVPLTGD | 4.56 ± 0.81 | 3.97 | 4.06 | 4.66 ± 0.43 | 3.93 ± 0.25 | 3.26 ± 0.33 | 3.71 | 9.83 ± 3.1 | 4.07 | 6.65 | 5.2 | 11.8 ± 1.2

— the supplement of paper PMC11246515
